Measurements published in the Human Domainome abundance scans (Beltran et al. 2025).

B1: Arginine-glutamic acid dipeptide repeats protein, residues 502 to 543; numbered along this chain, Q9P2R6 (parent)
chain: LKGYACRHCFTTTSKDWHHGGRENILLCTDCRIHFKKYGELP

Variants of: B1
Test: abundance fitness (aPCA) (normalised: wild type 0, dead -1); higher = more abundant; growth selection in yeast, the domain comes from the species named
Details: Homo sapiens

Abundance fitness, by site and new letter:
L27: W -0.259; Y -0.301; V -0.276
G39: S -0.171; N 0.027; E -0.078; W -0.301; P -0.478; Y -0.259; D 0.053; T -0.291; Q -0.082; R -0.118; I -0.726; A -0.108; L -0.249; M -0.328; V -0.42; C -0.142; F -0.393
F35: S -0.187; G -0.287; R -0.236; K -0.091; D -0.112; L -0.057; N -0.245; Q -0.058; A -0.089; C -0.191; W 0.001; H -0.015; M -0.163; P -0.422
I33: W -0.059; L 0.074; C 0.103; G 0.104; E 0.081; R 0.026; V 0.068; Y -0.01; H 0.017; S 0.017; M -0.007; Q 0.074; D 0.117; F -0.079; A 0.079; T 0.042; K -0.011; P -0.465
K36: E -0.012; C -0.134; G 0.079; F 0.294; V -0.038; N 0.248; T 0.009; L -0.068; M -0.095; Q 0.123; P -0.363; A 0.081; R -0.029; S 0.008; W -0.147
L41: Q -0.327; I -0.46; E -0.301; K -0.309; W -0.302; S -0.325; V -0.246; Y -0.22; H -0.416; T -0.044; D -0.245; G -0.276; F 0.271; A -0.317; P -0.253; M -0.126; C -0.223; N -0.366
C31: P -1.07; Q -1.14; R -1.16; Y -0.911; W -1.33; D -0.527; A -0.981; V -1.08; K -0.732; H -0.733; L -1.1; E -0.742
R32: W 0.053; N -0.063; L -0.058; M -0.017; S -0.013; D -0.001; P -0.612; C -0.114; K -0.137; F 0.021; E -0.045; A -0.011; V -0.14; Q -0.035; T -0.088; H -0.037; G -0.029
K37: R -0.026; Q -0.027; L -0.194; M -0.089; S -0.052; C -0.168; H -0.182; N -0.09; Y -0.159; T -0.032; W -0.135; D -0.013; P -0.278; G -0.184; A -0.034; E -0.04; V -0.149
D30: L -0.29; T 0.068; G -0.044; E -0.069; M -0.157; I -0.404; C -0.248; Q -0.07; P -0.058; W -0.352; S -0.104; K -0.098
H34: Y -0.102; A -0.033; F -0.218; E -0.242; P -0.805; L -0.282; C 0.05; W -0.001; G -0.193; R -0.258; V -0.3; T -0.204; D -0.32; M -0.204; Q -0.098; I -0.472; S -0.04
T29: C -0.096; A -0.067; Q -0.106; V -0.154; N -0.07; E -0.105; G -0.13; I -0.094; L -0.089; R -0.125; K -0.145; H -0.474; M -0.192; P -0.347; D -0.151; Y 0.02; W -0.042
Y38: V 0.022; A -0.077; E 0.018; P -0.215; H -0.111; N 0.083; K -0.002; C 0.059; W -0.074; M -0.117; L -0.123; D -0.114; F -0.069; T 0.123; G -0.185; S -0.017; R -0.084; Q -0.062; I -0.298
C28: Y -0.617; S -0.789; V -0.851; L -1.13; H -0.872; P -0.853; G -0.798; Q -0.746; R -0.921; E -0.685; K -0.841; W -1; A -0.873; M -1.31; F -0.789
E40: D -0.101; H -0.11; M -0.176; V -0.036; T -0.078; F -0.472; Y -0.143; I -0.095; S -0.077; A -0.066; W -0.265; L -0.122; P -0.521; C -0.073; K -0.044; G -0.136; N -0.116; Q -0.012
P42: E -0.3; R -0.654; A -0.367; V -0.456; Q -0.349; G -0.519; L -0.491
